Drawing on publication PMC6005513, this text covers response for 14 substances.

The target in assay [1] is WMHBV myr-preS1-Al633-peptide. Put plainly: Al633 fluorescence of labelled myr-preS1-peptide bound to transfected HEK293 cells. The note with it: 10 nM peptide, 20 min, 37°C, read off a plot.
The target of assay [2] is HBV myr-preS1-Al633-peptide (UniProt P03138). The assay is described as above. Conditions: 10 nM peptide, 20 min, 37°C, read off a plot.

On to “Callithrix jacchus (common marmoset) Ntcp, wild type (from UniProt F7HA36) G158R”, for which the response in assay [1] (parent: est. 20000) worked out at 11000 rfu.
For the substance “Callithrix jacchus (common marmoset) Ntcp, wild type (from UniProt F7HA36) G158S”, the response in assay [1] (parent: est. 20000) came to 14000 rfu.
On to “Chlorocebus aethiops (grivet) Ntcp, wild type (from UniProt A0A0U3VGV8) R158G”, for which, in assay [1] (parent: est. 11000), the response came out at 20000 rfu.
With “Macaca fascicularis (crab-eating macaque) Ntcp, wild type R158G”, the response in assay [1] (parent: est. 11000) is 18000 rfu; in assay [2] (parent: est. 11000), 25000 rfu.
With “Macaca mulatta (rhesus macaque) Ntcp, wild type (from UniProt A0A0U4DKK4) R158G”, the response in assay [1] (parent: est. 11000) is 20000 rfu.
Same read-out and setting: in the case of “Saguinus oedipus (cotton-top tamarin) Ntcp, wild type (from UniProt A0A0U4EKU3) S158G” it was 15000 rfu.
Consider “Saimiri sciureus (common squirrel monkey) Ntcp, wild type G158R”, for which the response stood at 11000 rfu in assay [1] (parent: est. 18000) and 10000 rfu in assay [2] (parent: est. 18000).
With “Saimiri sciureus (common squirrel monkey) Ntcp, wild type G158S”, the response turned out to be 10000 rfu in assay [1] (parent: est. 18000) and 11000 rfu in assay [2] (parent: est. 18000).
Regarding “Semnopithecus sp. (langur) Ntcp, wild type R158G”, the response in assay [1] (parent: est. 10000) was 21000 rfu; in assay [2] (parent: est. 11000), 28000 rfu.
For the substance “human Na+/taurocholate co-transporting polypeptide (NTCP), wild type (from UniProt Q14973) G158D”, the response in assay [1] (parent: est. 24000) was found to be 12000 rfu.
As to “human Na+/taurocholate co-transporting polypeptide (NTCP), wild type (from UniProt Q14973) G158N”, in assay [1] (parent: est. 24000), the response stood at 12000 rfu.
On the same count and under the same terms, in the case of “human Na+/taurocholate co-transporting polypeptide (NTCP), wild type (from UniProt Q14973) G158R” it was 11000 rfu; in that of “human Na+/taurocholate co-transporting polypeptide (NTCP), wild type (from UniProt Q14973) G158S”, 19000 rfu.
On the same count and under the same terms, in the case of “human Na+/taurocholate co-transporting polypeptide (NTCP), wild type (from UniProt Q14973) G158V” it was 10000 rfu.
